According to patent US20110086770A1 (ANAPHORE, published 2011):

Key:
[1] = molecular target: recombinant human DR 4 receptor Fc fusion protein (R&D Systems) (human); assay: SPR (Biacore), captured DR4/Fc
[2] = molecular target: recombinant human DR 5 receptor Fc fusion protein (R&D Systems) (human); assay: SPR (Biacore), captured DR5/Fc
Sequence of recombinant human DR 5 receptor Fc fusion protein (R&D Systems) (human) (chain, as listed by the source): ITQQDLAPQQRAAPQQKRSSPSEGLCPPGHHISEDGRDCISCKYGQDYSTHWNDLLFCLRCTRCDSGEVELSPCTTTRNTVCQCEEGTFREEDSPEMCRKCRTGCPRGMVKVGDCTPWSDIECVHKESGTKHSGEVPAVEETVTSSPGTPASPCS

Sequence of recombinant human DR 4 receptor Fc fusion protein (R&D Systems) (human) (chain, as listed by the source): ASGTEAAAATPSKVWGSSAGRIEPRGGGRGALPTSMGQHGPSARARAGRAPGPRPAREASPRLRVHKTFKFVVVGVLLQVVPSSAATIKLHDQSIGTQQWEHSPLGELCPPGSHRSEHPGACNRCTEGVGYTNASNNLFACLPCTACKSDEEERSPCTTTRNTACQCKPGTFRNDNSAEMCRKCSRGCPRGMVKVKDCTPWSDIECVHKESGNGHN

B1: 014-42.3D11 ATRIMER (designed binder)
chain: EPPTQKPKKIVNAKKDVVNTKMFEELKSRLDTLAQEVALLKEQQALQTVCLKGTKVHMKCFLAFTQTKTFHEASEDCISRGGTLSTPQTGSENDALYEYLRQSVGNEAEIWLGLNGWLEGAGWVDMTGARIAYKNWETEITAQPDGGWHWRWENCAVLSGAANGKWFDKRCRDQLPYICQFGIV
modifications: Homotrimer (ATRIMER) of this chain; one protomer is given.
notes: not shown: C-terminal tag (His/Myc of pANA4, HA-StrepII of pANA10, or that of pANA19)
[1]
  Ka: 2.53e+07 M⁻¹
  Kd: 39.5 nM
  koff: 0.000526 s⁻¹
  kon: 13300 M⁻¹ s⁻¹

B2: 2a1a (=B9F) DR 5 ATRIMER (designed binder)
chain: EPPTQKPKKIVNAKKDVVNTKMFEELKSRLDTLAQEVALLKEQQALQTVCLKGTKVHMKCFLAFTQTKTFHEASEDCISRGGTLSTPQTGSENDALYEYLRQSVGNEAEIWLGLNKRVWYRGWVDMTGARIAYKNWETEITAQPDGGMRRRRENCAVLSGAANGKWFDKRCRDQLPYICQFGIV
modifications: Homotrimer (ATRIMER) of this chain; one protomer is given.
notes: also called 029-15.B9F; not shown: C-terminal tag (His/Myc of pANA4, HA-StrepII of pANA10, or that of pANA19)
[2]
  Ka: 2.38e+07 M⁻¹
  Kd: 42.8 nM
  koff: 0.00184 s⁻¹
  kon: 43800 M⁻¹ s⁻¹

B3: 9b3d (=B3D) DR 5 ATRIMER (designed binder)
chain: EPPTQKPKKIVNAKKDVVNTKMFEELKSRLDTLAQEVALLKEQQALQTVCLKGTKVHMKCFLAFTQTKTFHEASEDCISRGGTLSTPQTGSENDALYEYLRQSVGNEAEIWLGLNELRTDGLWVDMTGARIAYKNWETEITAQPDGGVMRRSENCAVLSGAANGKWFDKRCRDQLPYICQFGIV
modifications: Homotrimer (ATRIMER) of this chain; one protomer is given.
notes: also called 029-15.B3D; not shown: C-terminal tag (His/Myc of pANA4, HA-StrepII of pANA10, or that of pANA19)
[2]
  Ka: 1.11e+06 M⁻¹
  Kd: 899 nM
  koff: 0.000104 s⁻¹
  kon: 116 M⁻¹ s⁻¹

B4: 1a7b (=A8G) DR 5 ATRIMER (designed binder)
chain: EPPTQKPKKIVNAKKDVVNTKMFEELKSRLDTLAQEVALLKEQQALQTVCLKGTKVHMKCFLAFTQTKTFHEASEDCISRGGTLSTPQTGSENDALYEYLRQSVGNEAEIWLGLNRAWLRPRWVDMTGARIAYKNWETEITAQPDGGTLVSGENCAVLSGAANGKWFDKRCRDQLPYICQFGIV
modifications: Homotrimer (ATRIMER) of this chain; one protomer is given.
notes: also called 029-15.A8G; not shown: C-terminal tag (His/Myc of pANA4, HA-StrepII of pANA10, or that of pANA19)
[2]
  Ka: 6.43e+07 M⁻¹
  Kd: 15.6 nM
  koff: 0.000629 s⁻¹
  kon: 40500 M⁻¹ s⁻¹

B5: 8b6b (=A1H) DR 5 ATRIMER (designed binder)
chain: EPPTQKPKKIVNAKKDVVNTKMFEELKSRLDTLAQEVALLKEQQALQTVCLKGTKVHMKCFLAFTQTKTFHEASEDCISRGGTLSTPQTGSENDALYEYLRQSVGNEAEIWLGLNRAVLRPRWVDMTGARIAYKNWETEITAQPDGGWVLGGKNCAVLSGAANGKWFDKRCRDQLPYICQFGIV
modifications: Homotrimer (ATRIMER) of this chain; one protomer is given.
notes: also called 029-15.A1H; not shown: C-terminal tag (His/Myc of pANA4, HA-StrepII of pANA10, or that of pANA19)
[2]
  Ka: 2.56e+07 M⁻¹
  Kd: 39.1 nM
  koff: 0.000506 s⁻¹
  kon: 12900 M⁻¹ s⁻¹
